Assay results published in publication PMC12591035, “Bni5 regulates and coordinates septin architecture and myosin-II functions at the cell division site” (The Journal of Cell Biology, 2025).

Key:
Conditions in all cases: both partners purified
[1] = target: T1, 5-septin complexes/filaments (a mixture of Cdc11-Cdc12[His6]-Cdc3-Cdc10-Cdc10-Cdc3-Cdc12[His6]-Cdc11 and … (S. cerevisiae, UniProt P32458 1-415; Q07657 1-551; P32468 1-407; P32457 1-520; P25342 1-322); assay: co-sedimentation; 1.5 μg eluted GST fusion with 1.5 μg concentrated 4-septin or 5-septin complexes/filaments; 50 mM NaCl, 2 mM MgCl2, 15 mM imidazole, 12% glycerol, 50 mM Tris-HCl pH 7.5; 1 h at room temperature; 100,000 x g for 1 h at 4°C; pellet on Coomassie gel and anti-GST blot
T1 construct: Cdc11, S. cerevisiae septin, terminal subunit of the Cdc11-capped octamers; Shs1, S. cerevisiae septin, terminal subunit of the Shs1-capped octamers; Cdc12, S. cerevisiae septin; Cdc3, S. cerevisiae septin; Cdc10, S. cerevisiae septin, core subunit; A mixture of two kinds of octamer, each capped by two copies of either Cdc11 or Shs1; polymerised into filaments; also called septin filaments made …

[2] = target: T2, 4-septin complexes/filaments (Cdc11-Cdc12[His6]-Cdc3-Cdc10-Cdc10-Cdc3-Cdc12[His6]-Cdc11) (S. cerevisiae, UniProt P32458 1-415; P32468 1-407; P32457 1-520; P25342 1-322); assay: as above
T2 construct: Cdc11, S. cerevisiae septin, terminal subunit of the octamer; Cdc12, S. cerevisiae septin; Cdc3, S. cerevisiae septin; Cdc10, S. cerevisiae septin, core subunit; Octamers polymerised into filaments; copies are those of one octamer; The plasmids are from Versele et al., 2004; also called septin filaments made of Cdc11-capped octamers (four septins); four-septin complexes; source: E. coli …

[3] = target: T3, His-SUMO-Elm1(421-640) (S. cerevisiae, UniProt P32801 421-640); assay: pull-down; 3.5 μg GST fusion on glutathione resin with 3.5 μg His6-Sumo-Elm1-C or MBP-Myo1-mTD1; 20 mM MOPS pH 7.0, 1 mM EGTA, 150 mM NaCl, 1 mM DTT, 0.1% NP-40; 1 h; five washes; Coomassie gel and anti-6xHis or anti-MBP blot
T3 construct: Elm1 kinase, S. cerevisiae, residues 421-640 (C-terminal non-kinase domain); Cloned into pET-His6-Sumo-TEV-LIC (Addgene #29659); also called His6-Sumo-Elm1-C; pET-His6-Sumo-Elm1(421-640); source: E. coli Rosetta DE3, purified (His-tag resin, eluted with imidazole); not shown: His6, N-terminal, kept; SUMO, N-terminal, kept
T3 sequence (looked up): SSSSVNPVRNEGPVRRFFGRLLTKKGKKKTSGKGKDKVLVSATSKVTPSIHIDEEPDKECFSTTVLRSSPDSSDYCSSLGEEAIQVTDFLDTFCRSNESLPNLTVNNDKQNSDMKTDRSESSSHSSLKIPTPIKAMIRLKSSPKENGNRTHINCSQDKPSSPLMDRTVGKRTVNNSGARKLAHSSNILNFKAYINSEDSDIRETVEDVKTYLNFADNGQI

T2 sequence (P32458 whole entry, chain 1 of 4): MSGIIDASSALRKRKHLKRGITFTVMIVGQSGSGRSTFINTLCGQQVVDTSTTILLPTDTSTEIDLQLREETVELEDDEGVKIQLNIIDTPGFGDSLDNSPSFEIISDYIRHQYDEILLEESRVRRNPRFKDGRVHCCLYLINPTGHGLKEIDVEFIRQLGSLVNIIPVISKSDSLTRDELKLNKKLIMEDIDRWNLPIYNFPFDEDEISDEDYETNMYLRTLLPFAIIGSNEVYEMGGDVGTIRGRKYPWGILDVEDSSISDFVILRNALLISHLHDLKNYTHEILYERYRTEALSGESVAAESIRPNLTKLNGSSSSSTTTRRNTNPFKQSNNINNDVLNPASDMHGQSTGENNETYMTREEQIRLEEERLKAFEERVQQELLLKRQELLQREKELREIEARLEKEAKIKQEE
T2 sequence (P32468 whole entry, chain 2 of 4): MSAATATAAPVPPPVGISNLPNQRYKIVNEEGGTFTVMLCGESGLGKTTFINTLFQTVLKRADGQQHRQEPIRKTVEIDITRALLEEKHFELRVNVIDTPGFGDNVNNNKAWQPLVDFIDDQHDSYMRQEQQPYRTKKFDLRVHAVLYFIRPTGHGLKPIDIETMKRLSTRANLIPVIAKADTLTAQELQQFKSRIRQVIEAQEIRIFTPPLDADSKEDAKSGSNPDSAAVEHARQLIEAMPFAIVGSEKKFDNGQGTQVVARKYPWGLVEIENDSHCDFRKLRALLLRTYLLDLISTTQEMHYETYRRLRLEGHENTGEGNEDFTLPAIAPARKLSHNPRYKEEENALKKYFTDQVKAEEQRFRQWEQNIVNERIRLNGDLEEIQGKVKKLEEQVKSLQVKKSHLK
T2 sequence (P32457 whole entry, chain 3 of 4): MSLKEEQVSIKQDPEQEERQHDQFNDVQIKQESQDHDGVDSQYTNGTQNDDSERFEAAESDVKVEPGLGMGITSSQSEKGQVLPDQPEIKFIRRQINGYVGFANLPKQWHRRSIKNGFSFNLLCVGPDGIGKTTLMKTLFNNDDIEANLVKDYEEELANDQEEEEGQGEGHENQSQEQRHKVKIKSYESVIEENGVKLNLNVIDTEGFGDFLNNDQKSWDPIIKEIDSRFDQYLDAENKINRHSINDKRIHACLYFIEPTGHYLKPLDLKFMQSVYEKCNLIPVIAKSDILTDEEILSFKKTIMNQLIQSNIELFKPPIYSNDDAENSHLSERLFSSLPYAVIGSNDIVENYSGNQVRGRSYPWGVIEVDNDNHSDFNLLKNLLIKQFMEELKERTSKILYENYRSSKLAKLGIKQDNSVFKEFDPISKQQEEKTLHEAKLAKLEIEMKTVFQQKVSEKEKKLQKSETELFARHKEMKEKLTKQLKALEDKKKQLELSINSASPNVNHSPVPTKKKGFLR
T2 sequence (P25342 whole entry, chain 4 of 4): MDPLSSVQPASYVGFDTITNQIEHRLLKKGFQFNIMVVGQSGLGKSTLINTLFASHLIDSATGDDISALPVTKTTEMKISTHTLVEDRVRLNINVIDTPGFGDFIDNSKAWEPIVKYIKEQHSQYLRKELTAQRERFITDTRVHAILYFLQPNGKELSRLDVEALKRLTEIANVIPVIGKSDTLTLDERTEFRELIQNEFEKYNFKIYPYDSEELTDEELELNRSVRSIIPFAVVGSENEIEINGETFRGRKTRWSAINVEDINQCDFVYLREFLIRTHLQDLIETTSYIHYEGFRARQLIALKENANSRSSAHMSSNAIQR

B1: GST-Bni5-Ext-HR2 (GST-Bni5(306-393)) (domain or fragment, S. cerevisiae, UniProt P53890 306-393, looked up)
chain: QKKMANFETRRPTNPFRVISVSSNSNSRNGSRKSSLNKYDSPVSSPITSASELGSIAKLEKRHDYLSMKCIKLQKEIDYLNKMNAQGS
notes: Bni5, S. cerevisiae, residues 306-393 (Ext plus helical region HR2); also called GST-Ext-HR2; pGEX-4T-1-Bni5(306-393); source: E. coli Rosetta DE3, purified (Glutathione Sepharose 4B); kept on the resin for pull-downs, eluted with glutathione for the septin filament assay; not shown: GST, N-terminal, kept
binding result [1]: binds | binding result [2]: binds

B2: GST-Bni5-Ext-HR2-HR3 (GST-Bni5(306-448)) (domain or fragment, S. cerevisiae, UniProt P53890 306-448, looked up)
chain: QKKMANFETRRPTNPFRVISVSSNSNSRNGSRKSSLNKYDSPVSSPITSASELGSIAKLEKRHDYLSMKCIKLQKEIDYLNKMNAQGSLSMEDGKRLHRAVVKLQEYLDKKTKEKYEVGVLLSRHLRKQIDRGENGQFWIGTK
notes: Bni5, S. cerevisiae, residues 306-448 (Ext, HR2 and HR3); also called GST-Ext-HR2-HR3; pGEX-4T-1-Bni5(306-448); source: E. coli Rosetta DE3, purified (Glutathione Sepharose 4B); kept on the resin for pull-downs, eluted with glutathione for the septin filament assay; not shown: GST, N-terminal, kept
binding result [1]: binds | binding result [2]: binds | binding result [3]: binds
